For three molecules, Kd results are on record in paper PMC4122225 (2014).

Common to all, as to assay: ELISA
In experiment [1] the target is Apolipoprotein E3 (LipoE3) (Homo sapiens, UniProt P02649).
Experiment [2] addresses Apolipoprotein E2 (LipoE2) (Homo sapiens, UniProt P02649).
For experiment [3], the target named is Apolipoprotein E4 (LipoE4) (Homo sapiens, UniProt P02649).
Apolipoprotein E4 (LipoE4), sequence (P02649 19-317): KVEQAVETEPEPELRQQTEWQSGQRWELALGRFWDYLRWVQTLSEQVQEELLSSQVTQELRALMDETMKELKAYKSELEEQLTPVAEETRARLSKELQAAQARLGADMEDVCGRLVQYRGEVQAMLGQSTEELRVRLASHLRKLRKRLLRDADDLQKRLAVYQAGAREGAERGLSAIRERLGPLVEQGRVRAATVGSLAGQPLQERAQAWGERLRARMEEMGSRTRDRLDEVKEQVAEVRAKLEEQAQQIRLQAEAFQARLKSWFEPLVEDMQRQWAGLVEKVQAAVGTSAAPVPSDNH

Apolipoprotein E3 (LipoE3), sequence (P02649 19-317): as above
Apolipoprotein E2 (LipoE2), sequence (P02649 19-317): as above

B1: Haptoglobin (phenotype 1-1) (protein)
chain 1: VDSGNDVTDIADDGCPKPPEIAHGYVEHSVRYQCKNYYKLRTEGDGVYTLNDKKQWINKAVGDKLPECEADDGCPKPPEIAHGYVEHSVRYQCKNYYKLRTEGDGVYTLNNEKQWINKAVGDKLPECEAVCGKPKNPANPVQ
chain 2: ILGGHLDAKGSFPWQAKMVSHHNLTTGATLINEQWLLTTAKNLFLNHSENATAKDIAPTLTLYVGKKQLVEIEKVVLHPNYSQVDIGLIKLKQKVSVNERVMPICLPSKDYAEVGRVGYVSGWGRNANFKFTDHLKYVMLPVADQDQCIRHYEGSTVPEKKTPKSPVGVQPILNEHTFCAGMSKYQEDTCYGDAGSAFAVHDLEEDTWYATGILSFDKSCAVAEYGVYVKVTSIQDWVQKTIAEN
modifications: ApoE3 isoform, lecithin liposome-associated
For the molecule B1, the Kd in experiment [1] was determined as 59.6 nM.

B2: Haptoglobin (phenotype 1-1) (protein)
chain 1: VDSGNDVTDIADDGCPKPPEIAHGYVEHSVRYQCKNYYKLRTEGDGVYTLNDKKQWINKAVGDKLPECEADDGCPKPPEIAHGYVEHSVRYQCKNYYKLRTEGDGVYTLNNEKQWINKAVGDKLPECEAVCGKPKNPANPVQ
chain 2: ILGGHLDAKGSFPWQAKMVSHHNLTTGATLINEQWLLTTAKNLFLNHSENATAKDIAPTLTLYVGKKQLVEIEKVVLHPNYSQVDIGLIKLKQKVSVNERVMPICLPSKDYAEVGRVGYVSGWGRNANFKFTDHLKYVMLPVADQDQCIRHYEGSTVPEKKTPKSPVGVQPILNEHTFCAGMSKYQEDTCYGDAGSAFAVHDLEEDTWYATGILSFDKSCAVAEYGVYVKVTSIQDWVQKTIAEN
modifications: ApoE2 isoform, lecithin liposome-associated
For B2, in experiment [2], the dissociation constant (Kd) turned out to be 58.2 nM.

B3: Haptoglobin (phenotype 1-1) (protein)
chain 1: VDSGNDVTDIADDGCPKPPEIAHGYVEHSVRYQCKNYYKLRTEGDGVYTLNDKKQWINKAVGDKLPECEADDGCPKPPEIAHGYVEHSVRYQCKNYYKLRTEGDGVYTLNNEKQWINKAVGDKLPECEAVCGKPKNPANPVQ
chain 2: ILGGHLDAKGSFPWQAKMVSHHNLTTGATLINEQWLLTTAKNLFLNHSENATAKDIAPTLTLYVGKKQLVEIEKVVLHPNYSQVDIGLIKLKQKVSVNERVMPICLPSKDYAEVGRVGYVSGWGRNANFKFTDHLKYVMLPVADQDQCIRHYEGSTVPEKKTPKSPVGVQPILNEHTFCAGMSKYQEDTCYGDAGSAFAVHDLEEDTWYATGILSFDKSCAVAEYGVYVKVTSIQDWVQKTIAEN
modifications: ApoE4 isoform, lecithin liposome-associated
B3: the Kd in experiment [3] was found to be 54.9 nM.
